# T1: BCMA expressed on target cells (CHO-K1-BCMA recombinant cell line; MM.1S; RPMI8226) (human, UniProt Q02223 1-184)
# T1 sequence (looked up): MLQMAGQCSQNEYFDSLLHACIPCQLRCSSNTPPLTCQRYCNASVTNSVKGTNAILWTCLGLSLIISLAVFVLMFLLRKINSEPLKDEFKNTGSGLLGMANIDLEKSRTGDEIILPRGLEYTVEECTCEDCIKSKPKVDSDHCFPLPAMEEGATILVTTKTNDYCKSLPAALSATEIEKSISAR
# T2: human BCMA (antigen) (human, UniProt Q02223 1-54, limits assumed)
# T2 construct: Antigen coupled to the CM5 chip in SPR; also called B-cell maturation antigen; TNFRF17
# T2 sequence (looked up): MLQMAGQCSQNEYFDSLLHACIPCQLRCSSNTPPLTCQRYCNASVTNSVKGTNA
# T3: CD19 expressed on Nalm6 cells (UniProt P15391 20-556, limits assumed)
# T3 sequence (looked up): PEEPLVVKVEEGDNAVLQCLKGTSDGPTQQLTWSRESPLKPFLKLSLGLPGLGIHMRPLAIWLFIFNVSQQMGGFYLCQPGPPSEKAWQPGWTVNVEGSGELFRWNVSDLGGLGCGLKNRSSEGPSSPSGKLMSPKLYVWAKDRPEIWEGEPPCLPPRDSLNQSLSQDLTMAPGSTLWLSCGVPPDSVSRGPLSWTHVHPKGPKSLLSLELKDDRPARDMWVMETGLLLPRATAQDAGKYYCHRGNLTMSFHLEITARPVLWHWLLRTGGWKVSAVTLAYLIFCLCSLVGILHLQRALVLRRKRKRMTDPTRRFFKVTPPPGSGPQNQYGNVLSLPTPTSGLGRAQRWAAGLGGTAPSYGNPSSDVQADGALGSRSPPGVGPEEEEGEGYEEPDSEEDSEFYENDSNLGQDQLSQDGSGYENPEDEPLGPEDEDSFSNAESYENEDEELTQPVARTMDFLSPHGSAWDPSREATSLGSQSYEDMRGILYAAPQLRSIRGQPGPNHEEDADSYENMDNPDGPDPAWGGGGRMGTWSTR
# T4: human CD19 (antigen) (human, UniProt P15391 20-291, limits assumed)
# T4 sequence (looked up): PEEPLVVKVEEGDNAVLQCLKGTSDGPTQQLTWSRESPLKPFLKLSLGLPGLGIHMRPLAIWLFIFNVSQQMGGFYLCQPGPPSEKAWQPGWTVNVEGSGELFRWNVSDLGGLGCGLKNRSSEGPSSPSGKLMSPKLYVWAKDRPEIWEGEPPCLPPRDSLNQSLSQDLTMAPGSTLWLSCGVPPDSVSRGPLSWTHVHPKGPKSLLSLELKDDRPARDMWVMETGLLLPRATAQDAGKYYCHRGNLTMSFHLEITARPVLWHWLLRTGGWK
# What was measured:
# [1] = target: T1, BCMA expressed on target cells …; test: cell-based or functional assay
# [2] = target: T2, human BCMA (antigen); test: flow cytometry of lentivirus-transduced T cells labelled with antigen, 48 h after transduction; percent positive cells
# From the text: (§1) The nucleic acid sequence encoding the CAR was expressed under the drive of a promoter, therefore the lentivirus-transfected T cells could be labeled with an antigen or anti-CD19 antibody and measured by flow cytometry, to reflect the expression level of the CAR on the surface of the T cells.
# [3] = target: T3, CD19 expressed on Nalm6 cells; test: cell-based or functional assay
# [4] = target: T4, human CD19 (antigen); test: flow cytometry of lentivirus-transduced T cells labelled with antigen or anti-CD19 antibody, 48 h after transduction; percent positive cells
# From the text: as §1
Binder,"lysis rate of CHO-K1-BCMA-luc cells by CAR-T cells, ratio 0.25:1 [1] [%]","lysis rate of CHO-K1-BCMA-luc cells by CAR-T cells, ratio 0.5:1 [1] [%]","lysis rate of CHO-K1-BCMA-luc cells by CAR-T cells, ratio 1:1 [1] [%]","lysis rate of CHO-K1-BCMA-luc cells by CAR-T cells, ratio 2:1 [1] [%]",Positive rate of binding to BCMA [2] [%],"lysis rate of Nalm6-luc cells by CAR-T cells, ratio 0.25:1 [3] [%]","lysis rate of Nalm6-luc cells by CAR-T cells, ratio 0.5:1 [3] [%]","lysis rate of Nalm6-luc cells by CAR-T cells, ratio 1:1 [3] [%]","lysis rate of Nalm6-luc cells by CAR-T cells, ratio 2:1 [3] [%]",Positive rate of binding to CD19 [4] [%]
"TanCAR 05 (other, Tandem bispecific chimeric antigen receptor on human T cells; built here from its parts without the signal peptide; also called TanCAR 05 CAR-T) DIVMTQSPLSLPVTPGEPASISCRSSQSLVHSNGNTFLHWYLQKPGQSPQLLIYKVSNRFSGVPDRFSGSGSGTDFTLKISRVEAEDVGVYYCMQSTHVLTFGGGTKLEIKRAGGGGSQVQLVQSGAEVKKPGASVKVSCKASGYTFTDYLMHWVRQAPGQGLEWMGWINTETGEPTYADDFKGRVTMTRDTSTSTVYMELSSLRSEDTAVYYCAPSLYYGYSWFTYWGQGTLVTVSGGGGSGGGGSGGGGSGGGGSQVTLRESGPALVKPTQTLTLTCTFSGVSLPDYGVSWIRQPPGKALEWLAVIWGSETTYYNSALKSRLTISKDTSKNQVVLTMTNMDPVDTATYYCAKHYYYGGSYAMDYWGQGTTVTVSSGGGGSEIVLTQSPATLSLSPGERATLSCRASQDISKYLNWYQQKPGQAPRLLIYHTSRLHSGIPDRFSGSGSGTDFTLTISRLEPEDIAVYYCQQGNTLPYTFGQGTKLEITTTPAPRPPTPAPTIASQPLSLRPEACRPAAGGAVHTRGLDFACDIYIWAPLAGTCGVLLLSLVITLYCKRGRKKLLYIFKQPFMRPVQTTQEEDGCSCRFPEEEEGGCELRVKFSRSADAPAYKQGQNQLYNELNLGRREEYDVLDKRRGRDPEMGGKPRRKNPQEGLYNELQKDKMAEAYSEIGMKGERRRGKGHDGLYQGLSTATKDTYDALHMQALPPR",26.6,39.2,58.2,79.8,14.2,25.8,42.4,67.7,91.2,11.8
"TanCAR 06 (other, Tandem (looped) bispecific chimeric antigen receptor on human T cells; built here from its parts without the signal peptide; also called TanCAR 06 CAR-T) QVTLRESGPALVKPTQTLTLTCTFSGVSLPDYGVSWIRQPPGKALEWLAVIWGSETTYYNSALKSRLTISKDTSKNQVVLTMTNMDPVDTATYYCAKHYYYGGSYAMDYWGQGTTVTVSSGGGGSDIVMTQSPLSLPVTPGEPASISCRSSQSLVHSNGNTFLHWYLQKPGQSPQLLIYKVSNRFSGVPDRFSGSGSGTDFTLKISRVEAEDVGVYYCMQSTHVLTFGGGTKLEIKRAGGGGSGGGGSGGGGSGGGGSQVQLVQSGAEVKKPGASVKVSCKASGYTFTDYLMHWVRQAPGQGLEWMGWINTETGEPTYADDFKGRVTMTRDTSTSTVYMELSSLRSEDTAVYYCAPSLYYGYSWFTYWGQGTLVTVSGGGGSEIVLTQSPATLSLSPGERATLSCRASQDISKYLNWYQQKPGQAPRLLIYHTSRLHSGIPDRFSGSGSGTDFTLTISRLEPEDIAVYYCQQGNTLPYTFGQGTKLEITTTPAPRPPTPAPTIASQPLSLRPEACRPAAGGAVHTRGLDFACDIYIWAPLAGTCGVLLLSLVITLYCKRGRKKLLYIFKQPFMRPVQTTQEEDGCSCRFPEEEEGGCELRVKFSRSADAPAYKQGQNQLYNELNLGRREEYDVLDKRRGRDPEMGGKPRRKNPQEGLYNELQKDKMAEAYSEIGMKGERRRGKGHDGLYQGLSTATKDTYDALHMQALPPR",31.9,48.3,78.4,92.9,13.3,68.3,62.9,88.9,95.5,16.4
"TanCAR 08 (other, Tandem bispecific chimeric antigen receptor on human T cells; built here from its parts without the signal peptide; also called TanCAR 08 CAR-T) DIVMTQSPLSLPVTPGEPASISCRSSQSLVHSNGNTFLHWYLQKPGQSPQLLIYKVSNRFSGVPDRFSGSGSGTDFTLKISRVEAEDVGVYYCMQSTHVLTFGGGTKLEIKRAGGGGSGGGGSGGGGSQVQLVQSGAEVKKPGASVKVSCKASGYTFTDYLMHWVRQAPGQGLEWMGWINTETGEPTYADDFKGRVTMTRDTSTSTVYMELSSLRSEDTAVYYCAPSLYYGYSWFTYWGQGTLVTVSGGGGSGGGGSGGGGSGGGGSQVTLRESGPALVKPTQTLTLTCTFSGVSLPDYGVSWIRQPPGKALEWLAVIWGSETTYYNSALKSRLTISKDTSKNQVVLTMTNMDPVDTATYYCAKHYYYGGSYAMDYWGQGTTVTVSSGSTSGSGKPGSGEGSTKGEIVLTQSPATLSLSPGERATLSCRASQDISKYLNWYQQKPGQAPRLLIYHTSRLHSGIPDRFSGSGSGTDFTLTISRLEPEDIAVYYCQQGNTLPYTFGQGTKLEITTTPAPRPPTPAPTIASQPLSLRPEACRPAAGGAVHTRGLDFACDIYIWAPLAGTCGVLLLSLVITLYCKRGRKKLLYIFKQPFMRPVQTTQEEDGCSCRFPEEEEGGCELRVKFSRSADAPAYQQGQNQLYNELNLGRREEYDVLDKRRGRDPEMGGKPRRKNPQEGLYNELQKDKMAEAYSEIGMKGERRRGKGHDGLYQGLSTATKDTYDALHMQALPPR",12.3,38.4,65.9,–,28.5,65.9,83.8,92.2,–,24.4
"TanCAR 10 (other, Tandem bispecific chimeric antigen receptor on human T cells; built here from its parts without the signal peptide; also called TanCAR 10 CAR-T) DIVMTQSPLSLPVTPGEPASISCRSSQSLVHSNGNTFLHWYLQKPGQSPQLLIYKVSNRFSGVPDRFSGSGSGTDFTLKISRVEAEDVGVYYCMQSTHVLTFGGGTKLEIKRAGGGGSGGGGSGGGGSQVQLVQSGAEVKKPGASVKVSCKASGYTFTDYLMHWVRQAPGQGLEWMGWINTETGEPTYADDFKGRVTMTRDTSTSTVYMELSSLRSEDTAVYYCAPSLYYGYSWFTYWGQGTLVTVSGGGGSGGGGSGGGGSGGGGSEVKLQESGPGLVAPSQSLSVTCTVSGVSLPDYGVSWIRQPPRKGLEWLGVIWGSETTYYNSALKSRLTIIKDNSKSQVFLKMNSLQTDDTAIYYCAKHYYYGGSYAMDYWGQGTSVTVSSGSTSGSGKPGSGEGSTKGDIQMTQTTSSLSASLGDRVTISCRASQDISKYLNWYQQKPDGTVKLLIYHTSRLHSGVPSRFSGSGSGTDYSLTISNLEQEDIATYFCQQGNTLPYTFGGGTKLEITESKYGPPCPPCPFWVLVVVGGVLACYSLLVTVAFIIFWVKRGRKKLLYIFKQPFMRPVQTTQEEDGCSCRFPEEEEGGCELRVKFSRSADAPAYKQGQNQLYNELNLGRREEYDVLDKRRGRDPEMGGKPRRKNPQEGLYNELQKDKMAEAYSEIGMKGERRRGKGHDGLYQGLSTATKDTYDALHMQALPPR",17.1,36,57.9,–,39.8,59.6,77.4,91.5,–,34.8
"TanCAR 02 (other, Tandem bispecific chimeric antigen receptor on human T cells; built here from its parts without the signal peptide; also called TanCAR 02 CAR-T) DIVMTQSPLSLPVTPGEPASISCRSSQSLVHSNGNTFLHWYLQKPGQSPQLLIYKVSNRFSGVPDRFSGSGSGTDFTLKISRVEAEDVGVYYCMQSTHVLTFGGGTKLEIKRAGGGGSGGGGSGGGGSQVQLVQSGAEVKKPGASVKVSCKASGYTFTDYLMHWVRQAPGQGLEWMGWINTETGEPTYADDFKGRVTMTRDTSTSTVYMELSSLRSEDTAVYYCAPSLYYGYSWFTYWGQGTLVTVSEAAAKEAAAKEAAAKQVTLRESGPALVKPTQTLTLTCTFSGVSLPDYGVSWIRQPPGKALEWLAVIWGSETTYYNSALKSRLTISKDTSKNQVVLTMTNMDPVDTATYYCAKHYYYGGSYAMDYWGQGTTVTVSSGGGGSGGGGSGGGGSEIVLTQSPATLSLSPGERATLSCRASQDISKYLNWYQQKPGQAPRLLIYHTSRLHSGIPDRFSGSGSGTDFTLTISRLEPEDIAVYYCQQGNTLPYTFGQGTKLEITTTPAPRPPTPAPTIASQPLSLRPEACRPAAGGAVHTRGLDFACDIYIWAPLAGTCGVLLLSLVITLYCKRGRKKLLYIFKQPFMRPVQTTQEEDGCSCRFPEEEEGGCELRVKFSRSADAPAYKQGQNQLYNELNLGRREEYDVLDKRRGRDPEMGGKPRRKNPQEGLYNELQKDKMAEAYSEIGMKGERRRGKGHDGLYQGLSTATKDTYDALHMQALPPR",24,35.9,60.7,59,14.1,26.1,49.8,70.1,82.4,12.7
